Laboratory results: patent US20240084003A1 (SIMCERE ZAIMING PHARMACEUTICAL, published 2024)

T1: human CD22-ECD-His protein (human, UniProt P20273 20-687)
T1 construct: Made in house in HEK293E; also called hCD22-ECD-His; recombinant human CD22-ECD His protein; not shown: His tag
T1 sequence: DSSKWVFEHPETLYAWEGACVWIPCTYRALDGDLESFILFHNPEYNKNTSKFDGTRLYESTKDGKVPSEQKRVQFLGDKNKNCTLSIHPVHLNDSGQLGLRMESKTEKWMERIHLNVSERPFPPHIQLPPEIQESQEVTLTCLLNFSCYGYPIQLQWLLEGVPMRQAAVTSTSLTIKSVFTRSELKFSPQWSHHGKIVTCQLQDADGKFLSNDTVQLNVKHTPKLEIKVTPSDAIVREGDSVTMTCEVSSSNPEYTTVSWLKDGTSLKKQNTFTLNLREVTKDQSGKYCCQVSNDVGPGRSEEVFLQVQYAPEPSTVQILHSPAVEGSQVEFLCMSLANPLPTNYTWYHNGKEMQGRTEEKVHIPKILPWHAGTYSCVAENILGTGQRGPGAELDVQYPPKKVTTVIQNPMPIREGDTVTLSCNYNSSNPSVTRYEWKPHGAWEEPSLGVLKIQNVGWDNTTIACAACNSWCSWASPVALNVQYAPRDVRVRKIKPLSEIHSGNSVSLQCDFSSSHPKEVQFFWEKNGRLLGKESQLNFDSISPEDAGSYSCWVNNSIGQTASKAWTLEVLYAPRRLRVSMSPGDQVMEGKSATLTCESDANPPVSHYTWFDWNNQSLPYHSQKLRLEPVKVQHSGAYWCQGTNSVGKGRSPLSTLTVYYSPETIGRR

T2: human CD22 domain5-7-His (human, UniProt P20273 414-687)
T2 construct: also called hCD22 domain5-7-His; not shown: His tag
T2 sequence: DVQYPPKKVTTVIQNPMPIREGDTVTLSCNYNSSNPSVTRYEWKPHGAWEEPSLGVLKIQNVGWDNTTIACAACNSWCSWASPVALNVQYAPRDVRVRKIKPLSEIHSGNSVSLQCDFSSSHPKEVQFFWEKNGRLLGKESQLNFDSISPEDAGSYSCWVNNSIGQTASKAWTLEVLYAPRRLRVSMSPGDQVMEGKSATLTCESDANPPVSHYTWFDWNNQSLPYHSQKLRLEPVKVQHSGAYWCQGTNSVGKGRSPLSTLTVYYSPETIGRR

T3: monkey CD22 on HEK293T-monkey CD22 cells (monkey)
T3 construct: full-length entry expressed on stably transfected HEK293T cells
T3 chain: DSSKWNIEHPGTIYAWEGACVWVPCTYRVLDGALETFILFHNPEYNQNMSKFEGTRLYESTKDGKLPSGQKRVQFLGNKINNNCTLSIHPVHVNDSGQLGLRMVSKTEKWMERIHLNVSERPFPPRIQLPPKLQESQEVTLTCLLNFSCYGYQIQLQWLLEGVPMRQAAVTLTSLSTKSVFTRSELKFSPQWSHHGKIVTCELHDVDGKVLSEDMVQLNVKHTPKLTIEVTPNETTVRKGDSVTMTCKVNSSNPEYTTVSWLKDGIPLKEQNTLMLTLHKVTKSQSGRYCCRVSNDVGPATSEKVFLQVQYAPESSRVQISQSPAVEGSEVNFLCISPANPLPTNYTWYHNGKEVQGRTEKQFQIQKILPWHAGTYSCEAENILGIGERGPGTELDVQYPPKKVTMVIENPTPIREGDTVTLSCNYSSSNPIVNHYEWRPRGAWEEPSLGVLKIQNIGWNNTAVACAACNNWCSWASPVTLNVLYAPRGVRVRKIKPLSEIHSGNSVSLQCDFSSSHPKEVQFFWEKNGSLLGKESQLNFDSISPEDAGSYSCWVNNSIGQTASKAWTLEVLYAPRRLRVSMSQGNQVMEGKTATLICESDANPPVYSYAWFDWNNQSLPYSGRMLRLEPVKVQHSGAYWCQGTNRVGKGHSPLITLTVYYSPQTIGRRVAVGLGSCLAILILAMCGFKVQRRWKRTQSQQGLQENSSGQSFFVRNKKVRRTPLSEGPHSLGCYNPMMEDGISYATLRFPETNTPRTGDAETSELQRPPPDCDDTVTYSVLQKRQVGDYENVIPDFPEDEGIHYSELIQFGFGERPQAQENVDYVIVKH


How the values were obtained:
[1] = target: T1, human CD22-ECD-His protein; assay: ELISA, Ab 0.00001 nM
How it was run: (§1)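 After overnight 4 °C coating with 2 μg/mL CD22-ECD-His and 2 h BSA blocking, wells received antibody, then HRP conjugate (each 2 h, 37 °C). Signal came from TMB, 30 min at room temperature, acid-stopped.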

[2] = target: T1, human CD22-ECD-His protein; assay: ELISA, Ab 0.0001 nM
How it was run: as §1

[3] = target: T1, human CD22-ECD-His protein; assay: ELISA, Ab 0.001 nM
How it was run: as §1

human CD22 domain5-7-His = target: T2, human CD22 domain5-7-His; assay: ELISA, human CD22 domain5-7-His coated
[4] = target: T3, monkey CD22 on HEK293T-monkey CD22 cells; assay: FACS, HEK293T-monkey CD22 cells
Method: For suspension cell Raji, the medium supernatant was directly centrifuged and discarded, and the cell pellet was washed 2 times with PBS. After counting the cells in the previous step, the cell pellet was resuspended with [PBS+2% (w/w) BSA] blocking solution to 2×10⁶ cells/ml, and added to a 96-well FACS reaction plate at 50 μl/well, and then the chimeric antibody test sample was added at 50 μl/well, and incubated on ice for 2 hours. The mixture was centrifuged and washed 3 times with PBS buffer, Alexa Flour 488-labeled secondary antibody (purchased from Invitrogen, catalog number: A-11013) was added at 50 μl/well, and incubated on ice for 1 hour. The obtained mixture was centrifuged and washed 5 times with PBS, and FACS (FACS Canto™, purchased from BD Company) was used for detection and result analysis. Data analysis was performed by software (CellQuest) to obtain the mean fluorescence density (MFI)of the cells. And then software (GraphPad Prism8) was used for analysis, data fitting, and EC50 value calculation. […] The same method was used to detect the binding of the chimeric antibodies to endogenous CD22-negative cell MoLT4 cells (purchased from ATCC, CRL-1582) and CHO-K1 cells.
HEK293T-monkey CD22 cells were subjected to FACS detection and data analysis according to the method in Example 5.2.

Binder	OD450 [1] [OD450]	OD450 [2] [OD450]	OD450 [3] [OD450]	binding result (human CD22 domain5-7-His)	EC50 [4] [nM]	Maximum mean fluorescence intensity [4] [MFI]	EC50 (read off the curve) (human CD22 domain5-7-His) [nM]
F2.205.9 (antibody, human IgG1, lambda, V domains shown, Human-murine chimeric IgG1, lambda) VH: QVTLKESGPGILQPSQTLSLTCSFSGFSLSTSGMGVGWIRQPSGKGLEWLAHIWWDDDEYYNPALKSRLTISKDTSKNQVFLKIANVDTADTATYYCARISIPYGYYDWFFDVWGTGTTVTVSA VL: QAVVTQESALTTSPGETVTLTCRSSTGAVTTRNYANWVQEKPDHLFTGLIGGTNNRAPGVPARFSGSLIGDKAALTITGAQTEDEAIYFCALWYSNHFIFGSGTKVTVLG	0.19	0.24	0.4	no binding (tested: 100 nM)			
F2.180.16 (antibody, human IgG1, lambda, V domains shown, Human-murine chimeric IgG1, lambda) VH: EVKLVESGGGLVLPGGSLKISCAASGFTFSDYYMYWIRQTPDKRLEWVAYISNTGYSTFYPDSVKGRFTVSRDNAKNTLYLQMSRLQSEDTAMYYCARHGILYAMDYWGQGTSVTVSS VL: QPVLTQSSSASFSLGASAKLTCTLSSQYSTYTIGWYQQQPLKPPKYVMELKHDGSRHTGDGIPDRFSGSSSGADRYLSISNIQPEDEATYICGVGDTIKEQFMYVFGGGTKVTVLG	0.21	0.31	0.61				
F1.224.1 (antibody, human IgG1, kappa, V domains shown, Human-murine chimeric IgG1, kappa) VH: EVLLHQSGPELVKPGASVKISCKASGYTFTDFNMDWVRQRHGQSLEWIGDVNPNNGGTIYNQKFKGKATLTVDKSSSTVYMDLRSLTSDDTAVYYCVRLGTSDYGEAWFISWGQGTVVTVSA VL: DIVLTQSPASLAVSLGQRATISCRASQSVSTPRYSFMHWYQQKPGQPPKLLIKYASNLESGFPARFTGSGSGTDFTLNIHPVEEEDTAAYYCQQSWAIPWTFGGGTKLEIKR	0.17	0.34	1.08	no binding (tested: 100 nM)			
HA22-hIgG1 (antibody, V domains shown) VH: EVQLVESGGGLVKPGGSLKLSCAASGFAFSIYDMSWVRQTPEKCLEWVAYISSGGGTTYYPDTVKGRFTISRDNAKNTLYLQMSSLKSEDTAMYYCARHSGYGTHWGVLFAYWGQGTLVTVSA VL: DIQMTQTTSSLSASLGDRVTISCRASQDISNYLNWYQQKPDGTVKLLIYYTSILHSGVPSRFSGSGSGTDYSLTISNLEQEDFATYFCQQGNTLPWTFGCGTKLEIKR [HA22-hIgG1, listing 1 of 2 here]	0.19	0.33	0.89	no binding (tested: 100 nM)			
F1.120.15 (antibody, human IgG1, kappa, V domains shown, Human-murine chimeric IgG1, kappa) VH: QVQLQQSGPELVKPGASVKISCKASGNAFSNSWMNWVKQRPGKGLEWIGRVYSEDGDTQYNGKFRDKATLTADRSTSTAYMQLSSLTSEDSAVYFCARWLIYYGTYGAMDYWGQGTSVTVSS VL: DIQMTQTTSSLSASLGDRVTISCRASQDINNYLNWYHQKPDGTVKLLIYFTSRPYSGVPSRFSGSGSGTDYSLTISNLEQEDIATYFCQQGNTLPWTFGGGTKLEIKR	0.12	0.42	1.21	no binding (tested: 100 nM)			
HA22-hIgG1 (antibody, V domains shown) VH: EVQLVESGGGLVKPGGSLKLSCAASGFAFSIYDMSWVRQTPEKCLEWVAYISSGGGTTYYPDTVKGRFTISRDNAKNTLYLQMSSLKSEDTAMYYCARHSGYGTHWGVLFAYWGQGTLVTVSA VL: DIQMTQTTSSLSASLGDRVTISCRASQDISNYLNWYQQKPDGTVKLLIYYTSILHSGVPSRFSGSGSGTDYSLTISNLEQEDFATYFCQQGNTLPWTFGCGTKLEIKR [HA22-hIgG1, listing 2 of 2 here]					0.91	17100	
F1.17.1 (antibody, human IgG1, kappa, V domains shown, Human-murine chimeric IgG1, kappa) VH: QVQLKESGPGLVAPSQSLSITCTVSGFSLSRYTVHWVRQPPGKGLEWLGMIWGGGSTDYNSALKSRLSISKDNSKSQVFLKMNSLQTDDTAMYYCARPHDFDAGGFAYWGQGTLVTVSA VL: QIVLTQSPAILSTSPGEKVTMTCSASSRVNYMYWYQQKPGSSPRLLIYDTSNLASGVPVRFSGSGSGTSYSLTISRMEAEDAATYYCQQWTSYPLTFGAGTKLELKR	0.11	0.2	0.75	no binding (tested: 100 nM)			
F1.200.11 (antibody, human IgG1, kappa, V domains shown, Human-murine chimeric IgG1, kappa) VH: QNQLVQSGPELKKPGETVKISCKASGYTFTTAGMQWVQKMPGKGFKWIGWINTLSGEPKYAEDFKGRFAFSLETSATTAYLQISNLKNEDTATYFCARAYYSNLYWYFDVWGTGTTVTVSS VL: DIVMTQSQKFMSTTVGDRVTITCKASQNVVTAVAWYQQKPGQSPKVLIYSASNRYSGVPDRFTGSGSGTDFTLTISNMHSEDLANYFCHQYSSYPFTFGSGTKLEIKR	0.33	0.51	0.85				~0.03
F1.105.11 (antibody, human IgG1, kappa, V domains shown, Human-murine chimeric IgG1, kappa) VH: EVQLQQSGPVLVKPGASVKMSCKASGYTFSDYFMNWVKQSHGKSLEWIGIINSYSGGTSYNQKFKGKATLTVDKSSSTAYMELNSLTSEDSAVYYCARWMDYWGQGTSVTVSS VL: DVQITQSPSYLAASPGETITINCRTSESISKHLAWYQEKPGKTNKLLIYSGSTLQSGIPSRFSGSGSGTDFTLTISSLEPEDFAMYYCQQHNEYPWTFGGGTKLEIKR	0.08	0.14	0.53				~0.1
F1.216.2 (antibody, human IgG1, kappa, V domains shown, Human-murine chimeric IgG1, kappa) VH: QVQLQQSGPEVVRPGASVKISCKASGYAFSSSWMNWMKQRPGKALEWIGRIYPGDGDTNYSGEFKVKATLTADKSSSTAYMQLSSLTSEDSAVYFCAREGSYYSNPWYFDYWGQGTTLTVSS VL: DVLVTQTPLSLPVSLGDQASISCRSSQSIVQSNGDTYLEWYLQKPGQSPKLLIYKVSNRFSGVPDRFSGSGSGTDFTLKISRVEAEDLGVYYCFQGSHVPFTFGSGTKLEIKR	0.2	0.45	1.71	no binding (tested: 100 nM)			
